From the supplement of paper PMC12636428

Tested on: Saccharomyces cerevisiae
Assay: transcriptional activation domain activity (GFP:mCherry ratio, weighted mean of sorted bins, harmonized to initial dataset scale) (arbitrary fluorescence ratio units); higher = stronger transcriptional activation
Settings: beta-estradiol 1 µM; induction time 4 h
Protocol: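 53-aa protein tiles (fungal proteins plus yeast TF control tiles) fused C-terminally to a DBD-estrogen-binding domain-mCherry synthetic TF, integrated in S. cerevisiae (URA3 locus) with a GFP reporter. Cells were induced with 1 uM beta-estradiol for 4 h at 30 C, FACS-sorted into 8 bins by GFP:mCherry ratio and barcodes sequenced. Activity is the read-weighted mean bin fluorescence (GFP:mCherry), averaged over barcodes (median 12); tiles under 50 reads were discarded. New active-learning values were harmonized by linear fit onto the scale of the initial (Hummel et al.) dataset. The assay saturates at low and high signal.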

## HQLGATESGLRAKNDGKLVQAEARAEGRVTFRTYLTYVRAAGTWTWMMTIFFL
  transcriptional activation domain activity: 52800

## MYYLLLPLAYSLSHSVFFFFSVFLLRVLQYHGWWPFLLSSLCVFFLACVFVKG
  transcriptional activation domain activity: 27100

## DRMRENGLLSLSDLREYFVCWWRFEKMYRTLIIAETWMDLQAYKVKTLAWLHG
  transcriptional activation domain activity: 63200

## LFPFLFFFFFFLFFSFFLSFFPSSCFLLFSPFFSLVFPFFSLVFFSSFLFFSF
  transcriptional activation domain activity: 26800

## EGKTRESKQKQGRERIGKGKGSREKGERREEEEGKGGKRRAGRKEGEWRSRGS
  transcriptional activation domain activity: 32400

## CFKLSLVALWPFGKSIDWNLRSAGCLSTVFNVIWLVLLGWHLCLIHLGLMLLF
  transcriptional activation domain activity: 43600

## MATLDVFLRVYCFTLSFLLFLFLIIIFILAYSAFAVDFFFLFVYSSTIELCFI
  transcriptional activation domain activity: 36200

## EQQCICNYITSDPIWLIPLLGLLHRRLMYKVRLIYPFHISLANAFVTVCFHWL
  transcriptional activation domain activity: 80900

## LTNLNEIDFTNMFCNDNFIQNYNQGLMELLTEPTPGPSSSSCILPSTPTRPLS
  transcriptional activation domain activity: 83000

## SFMWVLVWLLVHIFKKFATITVDSATINRLARAFSSFDTGTVLTKEVILRLWR
  transcriptional activation domain activity: 52100

## MYELIGQGVSFFCCYFACVCFALHFCFGPYFGLWLWHCIFKTFFFLLVFFPNY
  transcriptional activation domain activity: 61200

## SLPLPDTLPFPLPDSLHLPLTDDFSLTLQDALPFLYMDSLPFPLPMPFLFYFW
  transcriptional activation domain activity: 69600

## WRHLFLGQLPLLMSEPFTNSTPIIDPLLNNDFELIDFEVNLMKYLQSKDQQLS
  transcriptional activation domain activity: 117000

## MFFFLSAFLLPFLFFLVGHSAPSFLYLVFLSFLFYYLLHFYFFLFFTYFCGSC
  transcriptional activation domain activity: 59300

## VPLEEYIPSDIDGVGRVTDKSSLVYDWPFDESIERNFSTTATAATGESKFDIN
  transcriptional activation domain activity: 68100

## GGAARVDREEMPGVTLCLRHLSACVLGVFLVESSKKVLVVVRTEPITLSKSFG
  transcriptional activation domain activity: 45200

## TSWKNEDQALVFHLRSRVSAAIMKLECHRDRRIDLLITFREAQRFLLELIGWV
  transcriptional activation domain activity: 59400

## VWVKTPWNLYALLLATLSHSLMIDPLLGVLLYYSSITWDPLYRILIFCIFAFW
  transcriptional activation domain activity: 45400

## SSSSSRVACGQVVKCGSEVVATSNGAYPVQEGDSCSRARRQSTGSVVNRTTRP
  transcriptional activation domain activity: 26400

## RSKVLRPFWLFLLALCYNLVHATALFYQVITLNVAVNSYSNALLTLLMSNQFV
  transcriptional activation domain activity: 53500

## HQLGLVMLGMRCDLMRWMVCMDGIEYAGDIVIYCPALLLQLQCIVHTYGWAAR
  transcriptional activation domain activity: 41700

## EIESVVMLYVSGRLLRIIEVGLVEGRPDVQAIVQALVARLICVTVSATAKWAR
  transcriptional activation domain activity: 36000

## RQNEKTETGKAEARTRRETGARKEHAKSGDRNAKENRNGERKQREHEKDKDGG
  transcriptional activation domain activity: 26000

## FVGNQAGCYNLVPVYDWIKRCIISIFVVFFISFLPLFLQELCERGVIRALYRL
  transcriptional activation domain activity: 72800

## GEAQARANADAQADAGEVPEKGKKKRRHKEGGGDGEGKKKKRKEKQTEPEEGA
  transcriptional activation domain activity: 24700

## DRFQLKKFGGYQVEFINYDYGVLQDVMLFSLQRHVNCQEVGVKMLWTIIISEW
  transcriptional activation domain activity: 49000

## RKKSALEEEERKEKENDELEKKGKRKEEKEEKRRRGKGEKKGKEIRKEKEEKE
  transcriptional activation domain activity: 25300

## MSGQLPAGAPRASPADASPTGPRAPTSSRPACLSCHTHKKRCVWKSAAPGTPC
  transcriptional activation domain activity: 69400

## MFWIFYELFLDGQDIHRFSLLLVFFLFFPFASYTYSLLLLILYSVSPYGFLTS
  transcriptional activation domain activity: 38000

## LWGHVVMEFCCWDFVRRASGLDSILLLLVYIFSSLPYFFFVLFVCHIAILLLT
  transcriptional activation domain activity: 34500

## PMRLHVDHVHVVGRPFLWYIIVAMCDNVTHVVLSFSGLTYYTTSRWFESIPYR
  transcriptional activation domain activity: 61200

## LVRDGILYFFVYTYRNALYQVYVVFGLAAVATLTLNAQLVLNTFLFIIFYVLV
  transcriptional activation domain activity: 56900

## MCCLLLFSPSFLCFFFAFFFYFTFYMTHLSDFSFLQRAIGLTYVFIWLIYRAH
  transcriptional activation domain activity: 38100

## TPKKAKKSAERVDDSDASDDGDGYGGGGGEDGRKRAAKPKKGKRAAAGGGSAG
  transcriptional activation domain activity: 26200

## EESLGAGMAKLNLDSATPSSHKSEPIFIAIDCEAYEEGAHAVTEVGVATLDTR
  transcriptional activation domain activity: 56000

## MLYQLFYFSRTKLIILVFFVLFSLLIISLFFFLFIPPFTFFFPFHMPEVFQNI
  transcriptional activation domain activity: 38200

## MYISLFITYLYTYILELCFDFLTIFIIYFHFFSASCMLHSISPLLFICFSFFQ
  transcriptional activation domain activity: 57700

## RRGEGRRGEGRRGEGRRGEGRRGEGRRGEGRGGEGRGGRGGRGRGSSGTGTGS
  transcriptional activation domain activity: 28000

## WLRVRKFTVTLATFVEPGTESILCGLYGAYALTTLPFFHNIGISSTWTSFFLI
  transcriptional activation domain activity: 36600

## MPNCLNIRFFLFFLLKFLYAPLSFLLFPYPSHAYLFFHVLLLINCLFVDVIPV
  transcriptional activation domain activity: 54600

## MGRDSSLPYFNSPSFWVAFFWSGAGLFFSFFTGFIYFPEQIFFPLFFFLFFED
  transcriptional activation domain activity: 58800

## GNIHFTLRMALSDPDMTTVRPVLDLLFGLTHFFFVVNTGLFDLIQSCFKIIEA
  transcriptional activation domain activity: 55100

## SRKGESGREDSGGRDKESRKRSRRDKTPVADERRRDGTRAAEERDRKRRGDHR
  transcriptional activation domain activity: 49100

## LECVRFAIMTHTVDLLQKVLWSQVDHILSRLPSIRTVKFRFFMDSSLWKKAAI
  transcriptional activation domain activity: 41900

## FVGPQLCRDDAWLHTSIQFTRNVGITRNLLRMLPAVVRPIVARLLPSYWRIYS
  transcriptional activation domain activity: 41700

## AAAAAPATTTTESAPAPAAEAAKPAEEAKPAATEAAPAADATAAAPAPAPAAA
  transcriptional activation domain activity: < 6570

## LPLYILSLLCCFFIIAMFWKVTIPFFLIFPSFFMLSCFHLYFSFSPSRWCILN
  transcriptional activation domain activity: 38600

## PIPLGYGSLWMYEFLYFCLLHVVFTICDGIYLLRAELTLIILLHFLLSWDEGN
  transcriptional activation domain activity: 47600

## ETAKIDIEKQSNGETDISVLRNHAPGTAPTEEENLEKNMAPLRKLIRLLLLNT
  transcriptional activation domain activity: 39100

## TGAGTGAFGSTNNTTSNGGIFGSQPPATGNAFGGGGAFGQNKPATGFGAAPST
  transcriptional activation domain activity: 40200

## MALEQRCQPTCEAVLLFLLLLFLPLWLLFERFKNLLLLLWPLFFFFFLLLLLW
  transcriptional activation domain activity: 35100

## RKSTSGKTEKADTEKPEKKKPANEGNTAAGTKGTGERKPAVKAGGGVKGRPSG
  transcriptional activation domain activity: 17800

## MVFIIFFAAFYTLFLYHSSLFFTLPFASIFFLLFFVRFIFFISVFLLFFLLGL
  transcriptional activation domain activity: 51100

## RVEAQVRDRRVEAQVRDRRAEAQVRARDHRSKVQVRNRQSKAEAEAQVRSQAR
  transcriptional activation domain activity: 33900

## VIYTSFFLYIYTPFIPFFFLFFFFLLLIPTFYIYMKRVLYYGLILWWFIQYSL
  transcriptional activation domain activity: 51700

## ALVRCCLSKVVYVALEFISICTMPESAKGVINLIDNLSPYARKDLVHLRGWVC
  transcriptional activation domain activity: 51800

## ICGMWLRGSFTFLSTVKDPHVLLRTMIKRDPELGFLWVGAFITGCHDRALREG
  transcriptional activation domain activity: 71200

## LNWYWLATTMYFLYGESVIYYFKHIVLVDKVLLPLATHHRFISFILYVFGFVF
  transcriptional activation domain activity: 71900

## KLGVCLLLILDSLHTTFCIYAMYWYLVINFGVFPELAMMHWSFEAQQMLNVLV
  transcriptional activation domain activity: 37800

## GCRNAYEIKTLRFGGVCMLHRCGGGQNCFKECCIDLMICLRFYIPFMKKFCPK
  transcriptional activation domain activity: 15900

## RNGKRTRNARKLRKPRRSRRRGEEKKKPNASALKRQRRREKKQEEELRRKQKR
  transcriptional activation domain activity: 47800

## MCNVALSLAWFIFPPFLHGILPFSTCLLLVFFLSLSSSFFSLITHLLLHCYLF
  transcriptional activation domain activity: 34900

## MCVWELVLVLVVWCFRCFSFFHPLHFLPWLLYPSPLISLFFCLFYPLLFFVFF
  transcriptional activation domain activity: 37900

## PQEPQKGEEEGGARGRPRCPRRRGGPKEEAAVPVEAPAVLAAEPVKADEPAAP
  transcriptional activation domain activity: 30200

## SFCFILPFTALTLFIFFLSRISCWSAVWWLDDFWLLHICLDISFTFFLFYSFF
  transcriptional activation domain activity: 62800

## SYSLNTSLCQAFWHVTWRLTPPLAVFLPINPFLCLHLHFTCTLFFLLSLVMLQ
  transcriptional activation domain activity: 58400

## YDKKTNVLGFDDGTFDNKVFNRTNFEEKAPFDIPLDEFFTELEKHSNVSQFNT
  transcriptional activation domain activity: 112000

## SMDQIREYNTRLQLVNAQSFDYTDNPYSFNVGINQDSAVFDLMTSPFTQEEVL
  transcriptional activation domain activity: 112000

## AKYVTTSMEVTPVTFGTYRTVFLPNGGLFFAILTTIRDFVTRHGLHSKIAMIF
  transcriptional activation domain activity: 54300

## TLAGMIRENDEEQKSRGITRIKELEIKCLIEGAYGINRPMHLFETAVVIAGGV
  transcriptional activation domain activity: 54500

## DSKLLPGFASYLSFCLFLYAITTVLPFFSLDCPYSTPLTPLMCRLYHFFMFGI
  transcriptional activation domain activity: 66800
